According to patent publication US20150165065A1 (AVIDBIOTICS, published 2015):
Positions count from the first letter of the chain named.

B1: soluble MICA generated from pKK39 (loop 1 insert 3.4) (designed binder)
chain: HHHHHHEPHSLRYNLTVLSWDGSVQSGFLTEVHLDGQPFLRCDRQKCRAKPQGQWAEDVLGNKTWDRETRDLTGNGKDLRMTLAHIKDQKEGLHSLQEIRVCEIHEDNSTRSSQHFYYDGELFLSQNLETEEWTMPQSSRAQTLAMNVRNFLKEDAMKTKTHYHAMHADCLQELRRYLKSGVVLRRTVPPMVNVTRSARGDSDHRVTCRASGFYPWNITLSWRQDGVSLSHDTQQWGDVLPDGNGTYQTWVATRICQGEEQRFTCYMEHSGNHSTHPVPSGK
notes: From pKK34 (His6, Glu125); secreted by 293T cells; also called 1-3.4
B2: soluble MICA generated from pKK42 (loop 1 insert 5.3) (designed binder)
chain: B1 chain with R196H, S197L, S202D, D203L, H204T, R205Y
notes: From pKK34 (His6, Glu125); secreted by 293T cells; also called 1-5.3
B3: soluble MICA generated from pKK48 (loop 3 insert extended 3.2sp) (designed binder)
chain: EPHSLRYNLTVLSWDGSVQSGFLTEVHLDGQPFLRCDRQKCRAKPQGQWAEDVLGNKTWDRETRDLTGNGKDLRMTLAHIKDQKEGLHSLQEIRVCEIHEDNSTRSSQHFYYDGELFLSQNLETKEWTMPQSSRAQTLAMNVRNFLKEDAMKTKTHYHAMHADCLQELRRYLKSGVVLRRTVPPMVNVTRSEASEGNITVTCRASGFYPWNITLSWRQDGVSLSHDTQQWGDVLPDGNGTYQTWVATRISGGSGGGSTSRGDHPRTQSGGSGGGCYMEHSGNHSTHPVPSGK
notes: From pSW276 (no N-terminal His tag, Lys125); secreted by 293T cells; also called 3-3.2sp
B4: soluble MICA generated from pKK49 (loop 3 insert extended 3.3sp) (designed binder)
chain: B3 chain with T258R, S259V, R260P, G261R, D262G, H263D, P264S, R265D, T266L, Q267T
notes: From pSW276 (no N-terminal His tag, Lys125); secreted by 293T cells; also called 3-3.3sp
B5: soluble MICA generated from pKK50 (loop 3 insert extended 5.1sp) (designed binder)
chain: B3 chain with T258V, S259T, H263T, P264F, R265T, T266Q, Q267S
notes: From pSW276 (no N-terminal His tag, Lys125); secreted by 293T cells; also called 3-5.1sp
B6: soluble MICA generated from pKK51 (loop 3 insert extended 5.3sp) (designed binder)
chain: B3 chain with T258H, S259L, R260A, G261R, D262G, H263D, P264D, R265L, Q267Y
notes: From pSW276 (no N-terminal His tag, Lys125); secreted by 293T cells; also called 3-5.3sp
B7: soluble MICA generated from pKK36 (loop 1 insert 3.1) (designed binder)
chain: HHHHHHEPHSLRYNLTVLSWDGSVQSGFLTEVHLDGQPFLRCDRQKCRAKPQGQWAEDVLGNKTWDRETRDLTGNGKDLRMTLAHIKDQKEGLHSLQEIRVCEIHEDNSTRSSQHFYYDGELFLSQNLETEEWTMPQSSRAQTLAMNVRNFLKEDAMKTKTHYHAMHADCLQELRRYLKSGVVLRRTVPPMVNVTSRGDHPRTQVTCRASGFYPWNITLSWRQDGVSLSHDTQQWGDVLPDGNGTYQTWVATRICQGEEQRFTCYMEHSGNHSTHPVPSGK
notes: From pKK34 (His6, Glu125); secreted by 293T cells; also called 1-3.1
B8: soluble MICA generated from pKK44 (loop 1 insert extended 3.2sp) (designed binder)
chain: HHHHHHEPHSLRYNLTVLSWDGSVQSGFLTEVHLDGQPFLRCDRQKCRAKPQGQWAEDVLGNKTWDRETRDLTGNGKDLRMTLAHIKDQKEGLHSLQEIRVCEIHEDNSTRSSQHFYYDGELFLSQNLETEEWTMPQSSRAQTLAMNVRNFLKEDAMKTKTHYHAMHADCLQELRRYLKSGVVLRRTVPPMVNVTSGGSGGGSTSRGDHPRTQSGGSGGGVTCRASGFYPWNITLSWRQDGVSLSHDTQQWGDVLPDGNGTYQTWVATRICQGEEQRFTCYMEHSGNHSTHPVPSGK
notes: From pKK34 (His6, Glu125); secreted by 293T cells; also called 1-3.2sp
B9: soluble MICA generated from pKK45 (loop 1 insert extended 3.3sp) (designed binder)
chain: B8 chain with T204R, S205V, R206P, G207R, D208G, H209D, P210S, R211D, T212L, Q213T
notes: From pKK34 (His6, Glu125); secreted by 293T cells; also called 1-3.3sp
B10: soluble MICA generated from pKK47 (loop 1 insert extended 5.3sp) (designed binder)
chain: B8 chain with T204H, S205L, R206A, G207R, D208G, H209D, P210D, R211L, Q213Y
notes: From pKK34 (His6, Glu125); secreted by 293T cells; also called 1-5.3sp
B11: soluble MICA generated from pKK37 (loop 1 insert 3.2) (designed binder)
chain: HHHHHHEPHSLRYNLTVLSWDGSVQSGFLTEVHLDGQPFLRCDRQKCRAKPQGQWAEDVLGNKTWDRETRDLTGNGKDLRMTLAHIKDQKEGLHSLQEIRVCEIHEDNSTRSSQHFYYDGELFLSQNLETEEWTMPQSSRAQTLAMNVRNFLKEDAMKTKTHYHAMHADCLQELRRYLKSGVVLRRTVPPMVNVTRTSRGDHPRTQVTCRASGFYPWNITLSWRQDGVSLSHDTQQWGDVLPDGNGTYQTWVATRICQGEEQRFTCYMEHSGNHSTHPVPSGK
notes: From pKK34 (His6, Glu125); secreted by 293T cells; also called 1-3.2
B12: soluble MICA generated from pKK41 (loop 1 insert 5.2) (designed binder)
chain: HHHHHHEPHSLRYNLTVLSWDGSVQSGFLTEVHLDGQPFLRCDRQKCRAKPQGQWAEDVLGNKTWDRETRDLTGNGKDLRMTLAHIKDQKEGLHSLQEIRVCEIHEDNSTRSSQHFYYDGELFLSQNLETEEWTMPQSSRAQTLAMNVRNFLKEDAMKTKTHYHAMHADCLQELRRYLKSGVVLRRTVPPMVNVTRGDTFTQSVTCRASGFYPWNITLSWRQDGVSLSHDTQQWGDVLPDGNGTYQTWVATRICQGEEQRFTCYMEHSGNHSTHPVPSGK
notes: From pKK34 (His6, Glu125); secreted by 293T cells; also called 1-5.2

target: T1, integrin αVβ5 (UniProt P06756 31-992; P18084 24-719); assay: ELISA, coated integrin, anti-MICA-HRP
T1 construct: Coated on the ELISA plate
Protocol: (§1) The ability of the soluble MICA molecules in each of the concentrated supernatants to bind target molecules was assayed by an ELISA using the intended target proteins, integrin αVβ3 or αVβ5, as capture agents on the ELISA plate. After the respective integrins were adhered to the bottoms of the wells of the ELISA plate, the wells were washed and blocked, as well known in the field. Each sample (100 μl) of soluble MICA produced and secreted by 293T cells was added to wells containing αVβ3 or αVβ5, incubated and washed. The soluble MICA molecules captured by the integrins were detected by HRP-conjugated antibody to human MICA developed with Ultra TMB-ELISA substrate and the optical densities read. The quantity of soluble MICA in each sample was determined by the MICA-specific ELISA. […] The ELISA signal from a non-binding, negative control MICA (generated by pSW273) was subtracted from each integrin binding signal.

T1 sequence (P06756 31-992, chain 1 of 2): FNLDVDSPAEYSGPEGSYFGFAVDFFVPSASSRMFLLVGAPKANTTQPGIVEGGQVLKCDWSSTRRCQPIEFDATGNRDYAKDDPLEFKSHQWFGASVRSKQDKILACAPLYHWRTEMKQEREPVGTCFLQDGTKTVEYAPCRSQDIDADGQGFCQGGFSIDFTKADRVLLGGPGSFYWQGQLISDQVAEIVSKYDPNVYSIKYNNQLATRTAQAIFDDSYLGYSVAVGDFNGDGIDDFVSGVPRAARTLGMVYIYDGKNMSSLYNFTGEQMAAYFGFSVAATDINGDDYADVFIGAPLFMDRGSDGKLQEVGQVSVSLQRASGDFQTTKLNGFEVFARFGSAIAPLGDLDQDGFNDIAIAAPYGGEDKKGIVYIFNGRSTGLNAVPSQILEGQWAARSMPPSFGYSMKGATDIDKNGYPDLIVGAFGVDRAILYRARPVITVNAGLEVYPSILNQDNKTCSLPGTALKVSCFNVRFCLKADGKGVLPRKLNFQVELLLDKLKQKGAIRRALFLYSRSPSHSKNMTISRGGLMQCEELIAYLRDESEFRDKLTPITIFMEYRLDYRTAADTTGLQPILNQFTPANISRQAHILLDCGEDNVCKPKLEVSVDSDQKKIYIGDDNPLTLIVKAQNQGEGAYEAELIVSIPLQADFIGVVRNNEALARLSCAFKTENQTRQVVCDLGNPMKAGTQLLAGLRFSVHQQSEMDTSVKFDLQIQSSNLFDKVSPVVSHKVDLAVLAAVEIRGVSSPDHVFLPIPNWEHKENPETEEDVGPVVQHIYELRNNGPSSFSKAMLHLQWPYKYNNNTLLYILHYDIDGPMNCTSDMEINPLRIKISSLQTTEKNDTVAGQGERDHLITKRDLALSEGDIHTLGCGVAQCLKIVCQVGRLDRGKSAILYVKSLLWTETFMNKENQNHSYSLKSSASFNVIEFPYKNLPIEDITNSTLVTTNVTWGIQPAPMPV
T1 sequence (P18084 24-719, chain 2 of 2): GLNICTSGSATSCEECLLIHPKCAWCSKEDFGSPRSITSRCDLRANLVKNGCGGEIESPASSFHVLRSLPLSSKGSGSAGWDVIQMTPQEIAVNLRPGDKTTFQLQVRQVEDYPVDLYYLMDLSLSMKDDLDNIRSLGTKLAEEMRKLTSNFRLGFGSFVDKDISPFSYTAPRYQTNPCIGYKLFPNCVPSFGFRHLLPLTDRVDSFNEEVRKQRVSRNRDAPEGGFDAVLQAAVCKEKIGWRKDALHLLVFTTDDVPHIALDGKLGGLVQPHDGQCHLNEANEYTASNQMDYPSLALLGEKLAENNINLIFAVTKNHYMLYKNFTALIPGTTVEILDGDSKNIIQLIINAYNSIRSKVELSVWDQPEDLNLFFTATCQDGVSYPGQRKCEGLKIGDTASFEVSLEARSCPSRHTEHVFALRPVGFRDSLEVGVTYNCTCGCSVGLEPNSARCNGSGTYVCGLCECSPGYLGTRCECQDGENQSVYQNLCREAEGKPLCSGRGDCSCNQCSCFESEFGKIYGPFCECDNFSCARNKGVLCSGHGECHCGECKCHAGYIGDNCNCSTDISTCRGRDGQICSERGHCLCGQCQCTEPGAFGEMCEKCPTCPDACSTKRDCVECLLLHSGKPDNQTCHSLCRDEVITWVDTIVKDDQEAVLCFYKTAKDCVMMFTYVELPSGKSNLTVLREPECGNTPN

αvβ5 signal [OD]	αvβ5 signal/ng [signal/ng MICA]	Binder
0.528	19.7	B1
0.565	22.8	B2
0.604	7.68	B3
0.478	5.51	B4
0.721	7.73	B5
1.05	10.9	B6
0.526	18.1	B7
0.46	10	B8
0.41	9.92	B9
0.276	9.38	B10
0.779	22.4	B11
0.65	22.4	B12

target: T2, integrin αVβ3 (UniProt P06756 31-992; P05106 27-718); assay: ELISA, coated integrin, anti-MICA-HRP
T2 construct: Coated on the ELISA plate
Protocol: as §1

T2 sequence (P06756 31-992, chain 1 of 2): as the sequence (P06756 31-992, chain 1 of 2) above
T2 sequence (P05106 27-718, chain 2 of 2): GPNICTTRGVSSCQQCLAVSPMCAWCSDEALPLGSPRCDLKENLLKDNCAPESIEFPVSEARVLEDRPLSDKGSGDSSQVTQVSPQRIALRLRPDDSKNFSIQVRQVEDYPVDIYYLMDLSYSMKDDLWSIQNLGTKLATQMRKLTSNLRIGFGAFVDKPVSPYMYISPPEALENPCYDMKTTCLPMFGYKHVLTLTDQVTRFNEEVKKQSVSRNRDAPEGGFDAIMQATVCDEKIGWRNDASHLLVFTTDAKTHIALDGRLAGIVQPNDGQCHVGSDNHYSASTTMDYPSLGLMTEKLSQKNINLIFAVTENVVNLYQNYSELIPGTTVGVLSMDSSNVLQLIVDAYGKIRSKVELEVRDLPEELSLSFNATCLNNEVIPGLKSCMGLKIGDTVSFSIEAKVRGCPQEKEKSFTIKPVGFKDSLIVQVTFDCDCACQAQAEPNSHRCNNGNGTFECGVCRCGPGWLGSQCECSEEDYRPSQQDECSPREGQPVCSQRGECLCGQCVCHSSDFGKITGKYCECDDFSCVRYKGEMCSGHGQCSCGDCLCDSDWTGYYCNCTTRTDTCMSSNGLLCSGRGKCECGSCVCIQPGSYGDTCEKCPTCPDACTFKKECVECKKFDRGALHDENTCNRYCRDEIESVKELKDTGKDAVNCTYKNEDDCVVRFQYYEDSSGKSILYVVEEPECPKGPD

αvβ3 signal [OD]	αvβ3 signal/ng [signal/ng MICA]	Binder
0.482	18	B1
0.526	21.2	B2
0.478	6.08	B3
0.508	5.86	B4
0.546	5.85	B5
0.694	7.2	B6
0.55	19	B7
0.41	8.92	B8
0.393	9.51	B9
0.294	9.99	B10
0.777	22.4	B11
0.516	17.7	B12
